B1: mRNA-splicing (parent)
chain: AGUUGCUGCUGGGAGCUCCAGCACAGUGAAAUGGACAGAAGGGCAGAGCAA

Variants of: B1
Test: exon inclusion enrichment index; higher = more inclusion; WT1 exon 5 minigene, HEK293

Variant	exon inclusion enrichment index
C6A U7A C9A U10A A31U U32G	0.311
C6A U7A C9A U10A A31U U32A	0.0674
C6A U7A C9A U10A A31U U32C	1.09
C6A U7A C9A U10A A31G U32G	0.383
C6A U7A C9A U10A A31G U32A	2.95
C6A U7A C9A U10A A31G U32C	2.27
C6A U7A C9A U10A A47U G48C	0.497
C6A U7A C9A U10A A47U G48A	0.579
C6A U7A C9A U10A A47U G48U	0.748
C6A U7A C9A U10A G34A A35G	0.208
C6A U7A C9A U10A G34A A35U	0.216
C6A U7A C9A U10A G34A A35C	0.52
C6A U7A C9A U10A A45C	0.979
C6A U7A C9A U10A A45U	1.14
C6A U7A C9A U10A A45G	1.6
C6A U7A C9A U10A C22G	0.964
C6A U7A C9A U10A C22U	0.414
C6A U7A C9A U10A C22A	0.593
C6A U7A C9A U10A G12C G13A	1.72
C6A U7A C9A U10A G12C G13C	1.06
C6A U7A C9A U10A G12C G13U	0.355
C6A U7A C9A U10A C44A	1.49
C6A U7A C9A U10A C44U	0.122
C6A U7A C9A U10A C44G	1.03

Variant	exon inclusion enrichment index
C6A U7A C9A U10A G42A G43A	2.97
C6A U7A C9A U10A G42A G43U	2.73
C6A U7A C9A U10A G42A G43C	3.53
C6A U7A C9A U10A G33C	1.04
C6A U7A C9A U10A G33A	0.0584
C6A U7A C9A U10A G33U	0.2
C6A U7A C9A U10A G28A A29U	0.156
C6A U7A C9A U10A G28A A29G	0.227
C6A U7A C9A U10A G28A A29C	0.433
C6A U7A C9A U10A C16G	0.188
C6A U7A C9A U10A C16U	0.472
C6A U7A C9A U10A C16A	0.669
C6A U7A C9A U10A C16A U17C	0.47
C6A U7A C9A U10A C16A U17G	0.312
C6A U7A C9A U10A C16A U17A	0.501
C6A U7A C9A U10A A31U	0.592
C6A U7A C9A U10A A31C	0.898
C6A U7A C9A U10A A31G	1.04
C6A U7A C9A U10A G42A	1.81
C6A U7A C9A U10A G42C	1.99
C6A U7A C9A U10A G42U	0.988
C6A U7A C9A U10A G13A A14U	1.82
C6A U7A C9A U10A G13A A14C	2.82
C6A U7A C9A U10A G13A A14G	1.21

Variant	exon inclusion enrichment index
C6A U7A C9A U10A A47G G48C	0.251
C6A U7A C9A U10A A47G G48U	0.0862
C6A U7A C9A U10A A47G G48A	0.364
C6A U7A C9A U10A G26U	0.794
C6A U7A C9A U10A G26C	1.1
C6A U7A C9A U10A G26A	1.08
C6A U7A C9A U10A C18A C19G	0.0285
C6A U7A C9A U10A C18A C19U	0.0166
C6A U7A C9A U10A C18A C19A	0.0959
C6A U7A C9A U10A G26U U27A	0.264
C6A U7A C9A U10A G26U U27G	1.76
C6A U7A C9A U10A G26U U27C	2.22
C6A U7A C9A U10A G13U A14U	0.534
C6A U7A C9A U10A G13U A14G	0.553
C6A U7A C9A U10A G13U A14C	1.14
C6A U7A C9A U10A G46A	0.993
C6A U7A C9A U10A G46C	0.722
C6A U7A C9A U10A G12A	1.32
C6A U7A C9A U10A G12U	0.96
C6A U7A C9A U10A G12C	2.21
C6A U7A C9A U10A G28U A29U	0.122
C6A U7A C9A U10A G28U A29C	0.539
C6A U7A C9A U10A G28U A29G	0.627
C6A U7A C9A U10A A47C G48A	0.547

Variant	exon inclusion enrichment index
C6A U7A C9A U10A A47C G48C	0.797
C6A U7A C9A U10A A47C G48U	0.811
C6A U7A C9A U10A C24U A25C	2.5
C6A U7A C9A U10A C24U A25U	0.761
C6A U7A C9A U10A C24U A25G	1.3
C6A U7A C9A U10A A37G	1.54
C6A U7A C9A U10A A37C	1.72
C6A U7A C9A U10A A37U	0.746
C6A U7A C9A U10A G46C A47G	1.23
C6A U7A C9A U10A G46C A47C	0.943
C6A U7A C9A U10A A37G G38U	0.29
C6A U7A C9A U10A A37G G38C	0.984
C6A U7A C9A U10A A37G G38A	0.801
C6A U7A C9A U10A C18U C19U	0.00807
C6A U7A C9A U10A C18U C19A	0.046
C6A U7A C9A U10A C18U C19G	0.119
C6A U7A C9A U10A G15C C16G	0.812
C6A U7A C9A U10A G15C C16U	0.63
C6A U7A C9A U10A G15C C16A	0.525
C6A U7A C9A U10A G43U C44A	0.0263
C6A U7A C9A U10A G43U C44U	0.125
C6A U7A C9A U10A G43U C44G	0.238
C6A U7A C9A U10A A39C A40G	0.849
C6A U7A C9A U10A A39C A40C	1.65

Variant	exon inclusion enrichment index
C6A U7A C9A U10A A39C A40U	0.533
C6A U7A C9A U10A G33U G34U	0.0929
C6A U7A C9A U10A G33U G34C	0.221
C6A U7A C9A U10A G33U G34A	0.0617
C6A U7A C9A U10A A45G G46U	0.543
C6A U7A C9A U10A A45G G46C	1.17
C6A U7A C9A U10A A45G G46A	2.3
C6A U7A C9A U10A C19G A20G	0.289
C6A U7A C9A U10A C19G A20U	0.62
C6A U7A C9A U10A C19G A20C	1.03
C6A U7A C9A U10A A35U C36U	0.00621
C6A U7A C9A U10A A35U C36A	0.00157
C6A U7A C9A U10A A35U C36G	0.054
C6A U7A C9A U10A G26A U27G	1.32
C6A U7A C9A U10A G26A U27C	2.37
C6A U7A C9A U10A G26A U27A	0.813
C6A U7A C9A U10A G38A A39C	0.579
C6A U7A C9A U10A G38A A39U	0.0204
C6A U7A C9A U10A G38A A39G	0.862
C6A U7A C9A U10A C36G	0.433
C6A U7A C9A U10A C36A	0.531
C6A U7A C9A U10A C36U	0.122
C6A U7A C9A U10A C22G A23G	0.212
C6A U7A C9A U10A C22G A23C	0.321

Variant	exon inclusion enrichment index
C6A U7A C9A U10A C22G A23U	0.0793
C6A U7A C9A U10A G33A G34U	0.0565
C6A U7A C9A U10A G33A G34A	0.0545
C6A U7A C9A U10A G33A G34C	0.0943
C6A U7A C9A U10A G11A G12U	1.67
C6A U7A C9A U10A G11A G12C	2.24
C6A U7A C9A U10A G11A G12A	1.79
C6A U7A C9A U10A C36G A37C	0.129
C6A U7A C9A U10A C36G A37G	0.0922
C6A U7A C9A U10A C36G A37U	0.216
C6A U7A C9A U10A G41A	0.4
C6A U7A C9A U10A G41U	0.866
C6A U7A C9A U10A G41C	2.07
C6A U7A C9A U10A G15A C16A	0.363
C6A U7A C9A U10A G15A C16G	0.366
C6A U7A C9A U10A G15A C16U	0.351
C6A U7A C9A U10A G15C	1.25
C6A U7A C9A U10A G15U	0.786
C6A U7A C9A U10A G15A	0.818
C6A U7A C9A U10A C19A A20C	0.41
C6A U7A C9A U10A C19A A20G	0.0532
C6A U7A C9A U10A C19A A20U	0.195
C6A U7A C9A U10A A31C U32A	0.428
C6A U7A C9A U10A A31C U32C	1.71

Variant	exon inclusion enrichment index
C6A U7A C9A U10A A31C U32G	1.02
C6A U7A C9A U10A C22A A23G	0.734
C6A U7A C9A U10A C22A A23C	1.39
C6A U7A C9A U10A C22A A23U	0.354
C6A U7A C9A U10A G28U	0.147
C6A U7A C9A U10A G28C	0.528
C6A U7A C9A U10A G28A	0.174
C6A U7A C9A U10A G12U G13C	1.06
C6A U7A C9A U10A G12U G13U	0.144
C6A U7A C9A U10A G12U G13A	0.633
C6A U7A C9A U10A G41A G42A	0.559
C6A U7A C9A U10A G41A G42C	1.25
C6A U7A C9A U10A G41A G42U	0.617
C6A U7A C9A U10A C18A	0.411
C6A U7A C9A U10A C18G	0.561
C6A U7A C9A U10A C18U	0.387
C6A U7A C9A U10A G43A C44A	1.84
C6A U7A C9A U10A G43A C44U	0.656
C6A U7A C9A U10A G43A C44G	2.4
C6A U7A C9A U10A C36A A37G	0.204
C6A U7A C9A U10A C36A A37C	0.81
C6A U7A C9A U10A C36A A37U	0.229
C6A U7A C9A U10A G13U	0.142

From the RNAGym collection of RNA variant scans (doi:10.1101/gr.219683.116)
